The text below walks through data of PMC9118860.

For the assay, the target named is MTS-LOV2^V416L (membrane-anchored Light-oxygen-voltage-sensing domain 2, V416L variant).

The substance “Zdk1-N1ICD (Zdark 1 fused to the human NOTCH1 intracellular domain) (designed binder)” showed a 12xCSL-Luc luciferase reporter (RLU) in HEK293T cells, 48 h after blue light activation (0.05-s pulses for 1, 3 and 12 h), against LOV2^WT of 5 fold.
